# Source: patent US20140370037A1 (published 2014)
# T1: human DLL3 antigen (human, UniProt Q9NYJ7 27-492, limits assumed)
# T1 construct: also called immobilized human DLL3; recombinant human DLL3
# T1 sequence (looked up): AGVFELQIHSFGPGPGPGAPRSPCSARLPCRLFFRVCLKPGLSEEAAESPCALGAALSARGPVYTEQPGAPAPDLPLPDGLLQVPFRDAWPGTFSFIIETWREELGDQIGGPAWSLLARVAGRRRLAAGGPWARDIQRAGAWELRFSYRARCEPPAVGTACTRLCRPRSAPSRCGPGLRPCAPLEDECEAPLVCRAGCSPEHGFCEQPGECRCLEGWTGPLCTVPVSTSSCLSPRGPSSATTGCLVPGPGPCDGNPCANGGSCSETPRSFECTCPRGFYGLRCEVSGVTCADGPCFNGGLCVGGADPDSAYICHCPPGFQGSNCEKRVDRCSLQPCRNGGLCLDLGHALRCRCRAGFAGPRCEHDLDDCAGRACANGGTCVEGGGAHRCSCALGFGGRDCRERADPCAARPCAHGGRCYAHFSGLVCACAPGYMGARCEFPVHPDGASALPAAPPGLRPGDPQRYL
# Legend:
# human DLL3 antigen [1] = target: T1, human DLL3 antigen; experiment: SPR, Biacore 2000, human DLL3 antigen
# Method: Various methods were used to analyze the binding and immunochemical characteristics of selected DLL3 modulators generated as set forth above. […] Affinities and kinetic constants kₒₙ and koff of the selected modulators were measured using bio-layer interferometry analysis on a ForteBio RED (ForteBio, Inc.) or surface plasmon resonance using a Biacore 2000 each according to the manufacturer's instructions.
# In this respect the humanized constructs (CDR grafted) were compared with “traditional” chimeric antibodies comprising the murine parent (or donor) heavy and light chain variable domains and a human constant region substantially equivalent to that used in the humanized constructs. With these constructs surface plasmon resonance (SPR) was conducted using a Biacore 2000 (GE Healthcare) to identify any subtle changes in rate constants brought about by the humanization process.
# human DLL3 antigen [2] = target: T1, human DLL3 antigen; experiment: ELISA or flow cytometry screen
Binder,binding result (human DLL3 antigen [1]),binding result (human DLL3 antigen [2])
"hSC16.13 (antibody, V domains shown, humanized (CDR grafted)) VH: QITLKESGPTLVKPTQTLTLTCTFSGFSLSTSGMGVGWIRQPPGKALEWLAHIWWDDVKRYSPSLKSRLTITKDTSKNQVVLTMTNMDPVDTATYYCARIVSFDNDVVSAMDYWGQGTLVTVSS VL: DIQMTQSPSSLSASVGDRVTITCSASSSVSYMYWYQQKPGKAPKLLIYLTSNLASGVPSRFSGSGSGTDFTLTISSLQPEDFATYYCQQWRSNPFTFGQGTKLEIKR",binds,–
"hSC16.15 (antibody, V domains shown, humanized (CDR grafted); also called humanized SC16.15) VH: QVQLVQSGAEVKKPGASVKVSCKASGYTFTRYWIHWIRQAPGQGLEWMGYINPTTVYTEFNQNFKDRVTMTRDTSTSTVYMELSSLRSEDTAVYYCARGGSNFFDYWGQGTTVTVSS VL: AIQLTQSPSSLSASVGDRVTITCRASENIYYNLAWYQQKPGKAPKLLIYTANSLEDGVPSRFSGSGSGTDFTLTISSLQPEDFATYFCKQAYDVPPTFGGGTKLEIK",binds,–
"SC16.125 (antibody, V domains shown, murine mAb) VH: DVQLQESGPDLVKPSQSLSLTCTVTGYSITSGYSWHWIRQFPGNKLEWMGYIHYSGSTNYNPSLKSRISITRDTSKNQFFLQFKSVTTEDSATYYCALEGNYDGFAYWGQGTLVTVS VL: DIQMNQSPSSLSASLGDTITITCHASQNINVWLSWYQQKPGNIPKLLIYKASILHTGVPSRFSGSGSGTGFTLTISSLQPEDIATYSCQQGQSYPYTFGGGTKLEIK",–,binds
"SC16.126 (antibody, V domains shown, murine mAb) VH: QVQMKESGPGLVAPSQSLSITCTVSGSSLTNYGVHWVRQPPGKGLEWLGVIWAGGSTNYNSALMSRLSISKDNSKSQVFLKMNSLQTDDTAMYYCARDWEGWFAYWGQGTLVTVSA VL: DIQMNQSPSSLSASLGDTITITCHASQNINVWLSWYQQKPGNIPKLLIYKASNLHTGVPSRFSGSGSGTGFTLTISSLQPEDIATYYCQQGQSYPFTFGSGTKLEIK",–,binds
"SC16.149 (antibody, V domains shown, murine mAb) VH: QVQLKESGPGLVAPSQSLSITCAVSGFSLTSFGVHWVRQPPGKGLEWLGVIWAGGSTNYYSALMSRLSISIDNSKSQVFLKMNSLQTDDTAMYYCARDWEGWFAYWGQGTLVTVSA VL: DIQMNQSPSSLSASLGDTITITCHASQNINVWLSWYQQKPGNIPKLLIYKASHLHTGVPSRLSGSGSGTGFTLTISSLQPEDIATYYCQQGQSYPFTFGSGTTLEIK",–,binds
"SC16.130 (antibody, V domains shown, murine mAb) VH: EVQLQQSGPELVKPGASVKMSCKASGYTFTSYVMHWVKQKPGQGLEWIGYINPYNDGTEYNEKFKGKATLTSDKSSSTAYMELSSLTSEDSAVYYCARGVYDGYSYFDYWGQGTTLTVSS VL: DIQLTQSPASLSASVGETVTITCRASGSIHNYLAWYQQKQGKSPQLLVYNAKTLVDGVPSRFSGSGSGTQYSLKINSLQPEDFGYYYCQHFWTTPWTFGGGTKLEIK",–,binds
"SC16.132 (antibody, V domains shown, murine mAb) VH: QVQLKESGPGLVAPSQSLSITCTVSGFSLTDYGVSWIRQPPGKGLEWLGVVWGGGSTYYNSALKSRLSITKDNSKSQVFLKMNSLQTDDTAMYYCAKQRGQYGAYWGQGTLVTVSA VL: DIQMTQSPASQSASLGESVTITCLASQTIGTWLAWYQQKPGKSPQLLIYAATSLADGVPSRFSGSGSGTKFSFKISSLQAEDFVSYYCQQLYSTPWTFGGGTKLEIK",–,binds
"SC16.138 (antibody, V domains shown, murine mAb) VH: QVQLKESGPGLVAPSQSLSITCTVSGFSLTDYGVSWIRQPPGKGLEWLGVVWGGGSTYYNSALKSRLSISKDNSKSQVFLKMNSLQTDDTAMYYCAKQRGQYGAYWGQGTLVTVSA VL: DIQMTQSPASQSASLGESVTITCLASQTIGTWLAWYQQKPGKSPQLLIYSATSLADGVPSRFSGSGSGTKFSFKISSLQAEDFVSYYCQQLYSTPWTFGGGTKLEIK",–,binds
"SC16.133 (antibody, V domains shown, murine mAb) VH: QVQLKESGPGLVAPSQSLSITCTVSGFSLTNYAVHWVRQSPGKGLEWLGVIWSDGSTDYNAAFISRLSISKDNSKSQVFFKMNSLQADDTAMYYCARKKGGWFPWFAYWGQGTLVTVSA VL: SIVMTQTPKFLLVSAGDRVTITCKASQSVSNDVAWYQQKPGQSPKLLIYCASNRYTGVPDRFTGSGYGTDFTFTISTVQAEDLAVYFCQQDYSSPLTFGAGTKLELK",–,binds
"SC16.135 (antibody, V domains shown, murine mAb) VH: QVQLQQSGAELVRPGTSVKVSCKASGYAFTNYLIEWVKQRPGQGLEWIGVINPGSGGTNSNEKFKAKATLTADKSSSTAYMQLSSLTSADSAVYFCARSDYDYAFYAMDYWGQGTSVTVSS VL: DIKMTQSPSSMYASLGERVTITCKASQDINRYLSWFQQKPGKSPKTLIYRANRLVDGVPSRFSGSGSGQDYSLTISSLEYEDMGIYYCLQYDEFPFTFGSGTKLEIK",–,binds
"SC16.13 (antibody, V domains shown, murine mAb) VH: QVTLKESGPGILQPSQTLSLTCSFSGFSLSTSGMGVGWIRQPSGKGLEWLAHIWWDDVKRYNPALKSRLTISKDTSSSQVFLKIASVDTADTATYYCARIVSFDNDVVSAMDYWGQGTSVTVSS VL: QIVLTQSPALVSASPGEKVTMTCSASSSVSYMYWYQQKPRSSPKPWIYLTSNLASGVPARFSGSGSGTSYSLTISSMEAEDAATYYCQQWRSNPFTFGSGTKLEIK",–,binds
"SC16.136 (antibody, V domains shown, murine mAb) VH: EFQLQQSGPELVKPGASVKMSCKASGYTFTSYVMHWVKQKPGQGLEWIGYINPYNDGTKYNEKFKGKATLTSDKSSSTAYMELSSLTSEDSAVYYCARDRSGYEDYYGMDYWGQGTSVTVSS VL: DIQMTQSPASLSASVGETVTITCRASGNIHNYLAWYQQKQGKSPHLLVYNAKTLADGVPSRFSGSGSGTQYSLKINSLQPEDFGSYYCQHFWSTPWTFGGGTKLEIK",–,binds
"SC16.137 (antibody, V domains shown, murine mAb) VH: EVQLVESGGDLVKPGGSLKLSCAASGFTFSSYGMSWVRQTPDKRLEWVATISSGGSYTYYPDSVKGRFTISRDNAKNTLYLQMSSLKSEDTAMYYCARRRADAMDYWGQGTSVTVSS VL: QIVLTQSPAIMSASLGEEITLTCSASSSVSYMHWYQQKSGTSPKLLIYSTSNLASGVPSRFSGSGSGTFYSLTISSVEAEDAADYYCHQWSSYHTFGGGTKLEIKR",–,binds
"SC16.140 (antibody, V domains shown, murine mAb) VH: QVQLQQSGPELVRPGASVKMSCKASGYTFTSYWMHWVKQRPGQGLEWIGMIDPSNSETRLNQKFKDKATLNVDKSSNTAYMQLSSLTSEDSAVYYCAVMDYYFDYWGQGTTLTVSS VL: DIVLTQSLASLAVSLGQRATISCRASKSVSTSGYSYMHWYQQKPGQPPKLLIYLASNLESGVPARFSGSGSGTDFTLNIHPVEDEDAATYYCQHSRELPFTFGGGTKLEIKR",–,binds
"SC16.141 (antibody, V domains shown, murine mAb) VH: QVQLKQSGPGLVAPSQSLFITCTVSGFSLTSYEINWVRQPPGKGLEWLGVIWTGGSTNYNSALISRLSISKDNSKSLVFLKMNSLQTDDTAIYYCVRGVYAMDYWGQGTSVTVSS VL: DIKMTQSPSSMYASLGERVTITCKASQDINSYLSWFQQKPGKSPKTLIYRANRLVDGVPSRFSGSGSGQDYSLTISSLEYEDMGIYYCLQYDEFPFTFGSGTKLEIK",–,binds
"SC16.142 (antibody, V domains shown, murine mAb) VH: EVQLQQSGPELVKPGASVKISCKASGYTFTDYNMHWVKQSHGKSLEWIGFFYPYNGNTVYSQKFKSKATLTVDNSSSTAYMELRSLTSEDSAVYYCARLNWEGYWGQGTTLTVSS VL: DIKMTQSPSSMYASLGERVTITCKASQDINNYLSWFQQKPGKSPKTLIYRANRLVDGVPSRFSGSGSGQDYSLTISSLEYEDMGIYYCLQYDEFPYTFGGGTKLEIKR",–,binds
"SC16.143 (antibody, V domains shown, murine mAb) VH: QVQLQQSGPELVKPGASVRISCKASGYTFTSYYIHWVKQRPGQGLEWIGWIYPGNGNTKYNEKFKGKATLTADKSSSTAYMQISSLTSEDSAVYFCARERWLLLWFAYWGQGTLVTVSA VL: DVLMTQTPLSLPVSLGDQASISCRSSQSIVHSNGNTYLEWYLQKPGQSPKLLIYKVSNRFSGVPDRFSGSGSGTDFTLKISRVEAEDLGVYYCFQGSHVPLTFGAGTKLELK",–,binds
"SC16.144 (antibody, V domains shown, murine mAb) VH: QIQLVQSGPELKKPGETVKISCKASGYTFTNYGMNWVKQAPGKGLKWVGWINTYTGEPTYADDFKGRFAFSLETSASTAYLQIDNLKNEDTATYFCARVGDYVGFDYWGQGTTLTVSS VL: SIVMTQTPKFLLVSAGDRVTITCKASQSVSNDVGWYQQKPGQSPKLLIYYASNRYNGVPDRFTGSGYGTDFTFTISTVQAEDLAVYFCQQDYSSPWTFGGGTKLEIK",–,binds
"SC16.147 (antibody, V domains shown, murine mAb) VH: QIQLVQSGPELTKPGETVKISCKASGYTFTDYSLHWVKQALGKGLKWMGWINTETGEPAYADDFKGRFAFSLETSASTAYLQINDLKNEDTTTYFCGIYDGYAMDYWGQGTSVTVSS VL: DIQMTQTASSLSASLGDRVTISCRASQDINNYLNWYQQKPDGTVKLLIYYTSRLHSGVPSRFSGSGSGTDYSLTISILEQEDIATYFCQQGDTLPWTFGGGTKLEIK",–,binds
"SC16.148 (antibody, V domains shown, murine mAb) VH: QIQLVQSGPELKKPGETVKISCKASGYTLTNYGMNWVKQAPGKGLKWMGWINTYTGEPTYADDFKGRFAFSLETSARIVYLQINNLKNEDTATYFCAKYEAHEGFVYWGQGTLVTVSA VL: QIVLTQSPAIMSASPGEKVTMTCSASSSVSYMYWYQQKPGSSPRLLIYDTSNLASGVPVRFSGSGSGTSYSLTISRMEAEDTATYYCQEWSNNPLTFGDGTKLELK",–,binds
